Source: patent US6190920A, “Method for detecting enzyme catalyzed cyclization” (The Regents of the University of California, priority 1997, dated 2001)
Structures can show the parent of a compound that is named as a salt. Each block holds one molecule with its values, some of them ahead of it. *1 amine or outer side, *2 acyl side, *3 side chain or, on linkers, in order; H or OH if unused. Where a SMILES comes first, the peptide text is derived from it. Bridges are numbered along the chain shown (N, C = ends). Where no end group is shown, it is not given here. [ ]: non-standard residue; d: D form. The star is where a group is joined. X2 = CCN(CCN([C@@H](Cc1ccc(O)cc1)C(=O)[*:2])[*:1])c1ccc(N=Nc2ccc([N+](=O)[O-])cc2)cc1; X1 = NC(=O)CCCC(=O)*

Experiments:
Format in all cases: biochemical, bovine
Trypsin [1] = molecular target: T1, Trypsin (Bos taurus, UniProt P00760); test: Trypsin-catalyzed cyclization of acyclic compound, products determined; settings: 30:30:40 DMF/ethanol/pH 6.5 Tris buffer
T1 construct: Trypsin (from bovine pancrease, Type I, ethanol precipitate); purchased Sigma Type I (catalogue number not given); host or cells: bovine pancreas
T1 sequence (P00760 24-246): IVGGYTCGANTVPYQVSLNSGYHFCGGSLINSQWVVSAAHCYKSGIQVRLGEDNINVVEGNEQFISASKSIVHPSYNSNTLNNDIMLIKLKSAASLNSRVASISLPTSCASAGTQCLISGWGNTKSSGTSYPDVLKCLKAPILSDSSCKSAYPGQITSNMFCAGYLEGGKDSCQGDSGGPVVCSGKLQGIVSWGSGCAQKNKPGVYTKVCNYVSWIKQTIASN
Protocol: The structure was determined conventionally.
The compound of Formula III SEQ ID NO: 1 where L is a resin linker was treated in the same manner, and the resin component removed. […] Therefore the material on the resin is accessible to the enzyme. A control experiment without the enzyme gave only starting material.
(§1) Reagents and solvents were obtained from commercial suppliers and used as received. Trypsin (from bovine pancrease, Type I, ethanol precipitate) and N-α-benzoyl-L-arginine-p-nitroanilide, hydrochloride were obtained from Sigma®. All moisture- or air-sensitive reactions were conducted under nitrogen in dried solvents. Unless otherwise indicated, chromatography was performed on silica gel with the indicated solvent as eluant. […]

Trypsin [2] = molecular target: T1, Trypsin; test: Dye retention on resin after trypsin treatment and cleavage of ester X; settings: trypsin in 30:30:40 DMF/ethanol/pH 6.5 Tris buffer, then 1:1 methanol/1M sodium hydroxide, filtered and washed
From the text: The compound of formula (3) is soluble; the compounds of formula (4) and (5) are not, as a consequence of their attachment to a resin. Therefore, whether or not cyclization has taken place, a solid insoluble product will remain, which can be filtered off and purified by washing. However, if cyclization has taken place and a product of formula (5) has been formed, the dye will still be attached to the resin, which consequently is visibly colored, or is visible under UV or by fluorescence, depending upon the dye used. If cyclization has not taken place and products of formula (3) and (4) have been formed, the dye will be seen in the filtrate and the insoluble resin material will be colorless.
The specific analogs that afford positive results in this screen may be then identified by conventional analysis of the material that is isolated from the resin beads by cleaving the bond linking the material to the resin beads. […]

Trypsin [3] = molecular target: T1, Trypsin; test: Trypsin assay (L-BAPNA hydrolysis, absorbance at 410 nm); settings: 5% DMSO
Protocol: as §1
All assays were performed at 37° C. on a Kontron Uvikon 860 UV-Vis spectrophotmeter. The forward reaction rate was measured by monitoring the absorbance change at 410 nm of the para-nitroanilide produced ( e=8800 M^-1 cm^-1 at 410 nm) at 30 sec intervals for 15 min. The concentrations of inhibitor solutions were determined spectrophotometrically from Disperse Red 1's extinction coefficient of 15,562 M^-1 cm^-1 at 490 nm. […] Inhibition constants (Ki 's) were determined from the slope of the V0 /v vs. [inhibitor] plots where the slope=1/Ki (1 +[L-BAPNA]/Km) and Km =2.0 +/-0.3 mM, V0 =rate in the absence of inhibitor and v=rate in the presence of inhibitor. […]

- cyclization by trypsin (Trypsin [1]): The same products A and B were obtained
- retention of dye colour on resin (Trypsin [2]): The color was retained on the resin
Molecule: O-{N-[L-Serinyl-L-leucyl]-N-[(4-nitrophenylazo)-2-aminophenylethyl-N-ethyl]-L-tyrosinyl-L-valinyl}-N-(glutaryl-photolinker-Tentagel-amide)-L-threonyl-L-arginine, Methyl Ester (SLYVTR-OMe; also: Tyr3 N-substituted with (4-nitrophenylazo)-2-aminophenylethyl-N-ethyl group, Val4-Thr5 ester bond via Thr side-chain OH, backbone changed)

- cyclization by trypsin (Trypsin [1]): readily cyclized
Molecule: O-{N-[L-serinyl-L-leucyl]-N-[(4-nitrophenylazo)-2-aminophenylethyl-N-ethyl]-L-tyrosinyl-L-valinyl}-N-(glutaryl carboxamide)-L-threonyl-L-arginine, Methyl Ester (SLYVTR-OMe; also: depsipeptide: Val ester-linked to Thr side-chain O, Tyr N-substituted with (4-nitrophenylazo)-2-aminophenylethyl-N-ethyl azo dye, Thr N-acylated with glutaryl carboxamide) [Ser--Leu--N(dye)--Tyr--Val--O--Thr(NH--C(O)--(CH2)3 CONH--L)--Arg--OR, R methyl, L hydrogen]

- Ki (Trypsin [3]; 37° C., 100 mM TRIS/10 mM CaCl2 pH=8.0, substrate L-BAPNA, average value of 3 separate determinations, read-out: inhibition constant Ki): 230 nM
Molecule: CCN(CCN1C(=O)[C@H](CC(C)C)NC(=O)[C@H](CO)NC(=O)[C@H](CCCNC(=N)N)NC(=O)[C@@H](NC(=O)CCCC(N)=O)[C@@H](C)OC(=O)[C@H](C(C)C)NC(=O)[C@@H]1Cc1ccc(O)cc1)c1ccc(N=Nc2ccc([N+](=O)[O-])cc2)cc1 [macrocyclic analog] (X1-TRSL[X2]V; ester 1-C)

Molecule: NC(N)=NCCCC(NC(=O)c1ccccc1)C(=O)Nc1ccc([N+](=O)[O-])cc1 [L-BAPNA, N-α-benzoyl-L-arginine-p-nitroanilide, hydrochloride, reference compound]
- Km (Trypsin [3]; 100 mM TRIS/10 mM CaCl2 (pH=8.0), Lineweaver-Burke and non-linear regression of initial rates): 2 ± 0.3 mM
